In PMC9680129, “SARS-CoV-2 accessory protein 7b forms homotetramers in detergent” (Virology Journal, 2022):
Where “and” joins values, the source holds several entries; their conditions need not be identical. Equal entries are not always repeated.

Legend:
[1] = molecular target: transmembrane domain of p7b (p7b-TM) (SARS-CoV); assay: AUC
[2] = molecular target: transmembrane domain of p7b (p7b-TM) (SARS-CoV); assay: SDS-PAGE
[3] = molecular target: transmembrane domain of p7b (p7b-TM) (SARS-CoV); assay: AUC; remark: listed apart in the source
AUC = molecular target: the molecule itself; assay: AUC
SDS-PAGE = molecular target: the molecule itself; assay: SDS-PAGE

Molecule | stoichiometry N [1] | stoichiometry N [2] | stoichiometry N [3] | stoichiometry N (AUC) | stoichiometry N (SDS-PAGE)
transmembrane domain of p7b (p7b-TM) (domain or fragment) | 2 | 2 | 4 |  | 
MNELTLIDFYLCFLAFLLFLVLIMLIIFWFSLEIQDLEEPCTKV (natural protein, also called SARS p7b; SARS 7b) [SARS-CoV accessory protein 7b] |  |  |  | 4 and 2 | 
MIELSLIDFYLCFLAFLLFLVLIMLIIFWFSLELQDHNETCHA (natural protein, also called SARS-2 p7b; SARS-2 7b) [SARS-CoV-2 accessory protein 7b] |  |  |  | 4 | 2
